# In article PMC9606946, “Programmed Aptamer Screening, Characterization, and Rapid Detection for α-Conotoxin MI”:
# “And” between values parts separate entries of the source, which are not always exact repeats. Equal values may be shown once. Where no end group is shown, it is not given here.
# T1: alpha-conotoxin MI (CTX-MI) (Conus magus, UniProt P01521 1-14, disulfide (positions not given here); not fully specified; also: two disulfides as in P01521)
# T1 chain: GRCCHPACGKNYSC-NH2
# B1: MBMI-92 (ssDNA)
# DNA: ATTGGCACTCCACGCATAGGCTCGCGGAGGGAGGGGTTTTGGGGGGCGGGATGGTATTGGCCTATGCGTGCTACCGTGAA
# B2: MBMI-51 (ssDNA)
# DNA: ATTGGCACTCCACGCATAGGAAGGTGGAATCGGAGGGGGTGCTTGGGTGGGGGTGGGATTCCTATGCGTGCTACCGTGAA
# B3: MBMI-01 (ssDNA)
# DNA: ATTGGCACTCCACGCATAGGTTTGGGGATGGGCAACGGTAAAAAGGGTCAAAAGGCTTTTCCTATGCGTGCTACCGTGAA
# B4: MBMI-02 (ssDNA)
# DNA: ATTGGCACTCCACGCATAGGATTTGGGTTTCGGGATAAGGGGCAAAAGGACAGGTTTTGTCCTATGCGTGCTACCGTGAA
# B5: MBMI-08 (ssDNA)
# DNA: ATTGGCACTCCACGCATAGGCAACGGGGGGGTGGGGAGAGAAGGGTTGAGTGACAATTTGCCTATGCGTGCTACCGTGAA
# B6: MBMI-39 (ssDNA)
# DNA: ATTGGCACTCCACGCATAGGGTAGGGGATTTAAGGAGGGGCCTTAGGAGGGGGGGGGTAACCTATGCGTGCTACCGTGAA
# B7: MBMI-94 (ssDNA)
# DNA: ATTGGCACTCCACGCATAGGAGCGGGGTTGGTTTGCGGGAGGGGGGGTGGAGGTAAGCTCCCTATGCGTGCTACCGTGAA
# B8: MBMI-22 (ssDNA)
# DNA: ATTGGCACTCCACGCATAGGCAAGAAGGGGGAGGGTGGTATGTGTCGGGGGGAGGGGTGGCCTATGCGTGCTACCGTGAA
# B9: MBMI-03 (ssDNA)
# DNA: ATTGGCACTCCACGCATAGGGGCGCTTGTGGTGTAAGGGTTGGGTATATGTCGTAATAGGCCTATGCGTGCTACCGTGAA
# Molecular target: T1, alpha-conotoxin MI (CTX-MI)
# Assay: BLI
# Details: protein: commercial, tags: none, label: biotin
Binder,Kd,other results
B1,260 nM,
B2,14000 nM,
CTCGCGGAGGGAGGGGTTTTGGGGGGCGGGATGGTATTGG (ssDNA) [MBMI-92c],1320 nM,
B3,850 nM,
B4,2210 nM,
B5,12000 nM,
B6,430 nM,
TTTGGGGATGGGCAACGGTAAAAAGGGTCAAAAGGCTTTT (structured_DNA) [MBMI-01c],,Kd (antiparallel G-quadruplex): 870 nM and 729 nM
TTTCCGGATGGGCAACGGTAAAAAGGGTCAAAAGGCTTTT (ssDNA) [M1],,"Kd (remaining predicted GQ cores C,D): 1520 nM"
TTTGGGGATGGGCAACGGTAAAAAGGGTCAAAACCCTTTT (ssDNA) [M3],,"Kd (remaining predicted GQ cores A,B): 1560 nM"
B7,2330 nM,
TTTGGCCATGGCCAACGGTAAAAAGGCTCAAAACCCTTTT (ssDNA) [M2],,Kd (remaining predicted GQ core A): 741 nM
B8,21200 nM,
ATTTGGGTTTCGGGATAAGGGGCAAAAGGACAGGTTTTGT (ssDNA) [MBMI-02c],1290 nM,
B9,3490 nM,
